“Also recorded” adds a separate entry of the source.
Columns and labels:
[1] = system: N-terminal CBM33 domain of CelS2; assay: Metal reactivation of EDTA treated N-terminal CBM33 domain of CelS2 (HPAEC, FIG. 31); format: biochemical, Streptomyces coelicolor A3(2); conditions: for reactivation of EDTA treated enzyme: 10 μM metal ion, 20 μM EDTA, 1.7 mM reduced glutathione, pH 6.6
Procedure: […]; Mg^2+, Fe^3+, Zn^2+, Co^2+, Ca^2+, Cu^2+). […].
To identify which is the preferred metal for CelS2, the activity of the N-terminal CBM33 domain of CelS2 was inhibited by EDTA and different metals were tested to reactivate the protein.

[2] = Cellulase boosting properties of CelS2 at various pHs with monocomponent Cel7A; format: biochemical; conditions: Cel7A
From the text: When probing the cellulose boosting properties of CelS2 at various pHs using monocomponent Cel7A as the cellulose hydrolytic component, pH 5.5 came out as the optimal pH for activity. […] The most obvious reason for the decrease in cellulose hydrolysis at increasing pH is the pH stability and efficiency of Cel7A. […] CelS2 is a bacterial enzyme that originates from Streptomyces species that are known to grow optimally on cellulosic substrates in approximately neutral pH conditions (Kontro et al., 2005, Letters in Applied Microbiology 41: 32-38.).

[3] = Filter paper cellulose degradation by […] with E7 (FIG. 28); format: biochemical
Procedure: 1 μM of the N-terminal CBM33 domain of CelS2 was incubated with 10 mg/ml AVICEL® in the presence of 0.8 mM of one of the reductants, or in the absence of any reductant. Reactions were run in 50 mM succinate buffer pH 5.5, 1 mM MgCl2, at 50° C. and 900 rpm (vertical agitation) for 20 hours. […] (glucose and cellobiose reported as [Glc]) released after incubation of 0.08 μl/ml […]™ (CC) in the presence or absence of 1 μM E7 and 2 mM reduced glutathione (RG) as external electron donor with 2 mg/ml filter paper cellulose. Reactions were incubated in 20 mM sodium acetate buffer pH 5.5, 1 mM MgCl2, at 50° C. and 900 rpm (horizontal agitation) for up to 50 hours.

[4] = Soluble products released from AVICEL by CBM33 proteins (MALDI-TOF MS, HPAEC); format: biochemical; conditions: with external electron donor (ascorbic acid or reduced glutathione)
Procedure: The main peaks are annotated with molecular weight and degree of polymerization (DP).
The DP of the oxidized cellooligosaccharides is indicated by n, where n=3 (the shortest labelled oxidized cellooligosaccharide has a DP of three (=n)). […] Peak annotation was performed by comparing the chromatogram with the chromatogram obtained for a chemically prepared mixture of oxidized cellooligosaccharides with lengths varying from DP1 to DP10.
The main peaks are annotated with molecular weight and degree of polymerization (DP). All annotated peaks are Na adducts of native cellooligosaccharides, oxidized cellooligosaccharides (denoted “ox”) or the sodium salts of oxidized cellooligosaccharides.
Products were analyzed after 20 hours of incubation in 20 mM ammonium acetate buffer pH 5.0, 1 mM MgCl2 at 50° C. and 900 rpm (vertical agitation).
Separation of native and oxidized cellooligosaccharides was achieved using a Dionex Bio-LC equipped with a CarboPack PA1, a column temperature of 30° C. and a flow of 0.25 ml/min, with starting conditions, i.e., 0.1 M NaOH. A stepwise linear gradient with increasing amounts of sodium acetate was applied, going from 0.1 M NaOH and 0.1 M sodium acetate in 10 minutes, then to 0.1 M NaOH and 0.3 M sodium acetate for 25 minutes then increasing to 0.1 M NaOH and 1.0 M sodium acetate at 30 minutes which was kept for 10 minutes. Column reconditioning was achieved by a one minute gradient to initial conditions and subsequent running at initial conditions for 14 minutes. Eluted oligosaccharides were monitored by PAD detection. Chromatograms were recorded and analysed using Chromeleon 7.0 Peak identification was achieved by a procedure including the following steps: oxidized cellooligosaccharides were separated using a Dionex Ultimate 3000 UHPLC system carrying a Hypercarb 150×2.1 mm column (Thermo Scientific) running a gradient of water/0.1% TFA and acetonitrile/0.1% TFA (from 20 to 80% acetonitrile) according to the method developed by Westphal et al., 2010, Journal of Chromatography A 1217: 689-695. Eluted peaks were manually fractioned, freeze-dried, re-dissolved in MilliQ water and identified using MALDI-TOF MS. Pure oxidized cellooligosaccharides with known identity were then analyzed using the HPEAC method described above in order to establish the identity of the oxidized cellooligosaccharides generated by CelS2 and E7.

[5] = Filter paper degradation by […] with CelS2 or E7 (FIG. 20), sugars by HPLC; format: biochemical
Procedure: Reactions were run in 50 mM Bis-tris/HCl pH 6.5, 1 mM MgCl2, at 50° C. and 900 rpm (horizontal agitation). Control reactions containing the cellulosic substrate suspended in the same buffer as used for the enzyme assays gave no detectable signal for either glucose or cellobiose.
The mobile phase consisted of 5 mM sulfuric acid and the flow rate used was 1.0 ml/min. Eluted glucose and cellobiose were monitored by recording refractive index. Quantification was obtained by running glucose and cellobiose standards.
Assays performed to evaluate the function of E7 and CelS2 were set up using a variety of cellulosic substrates (AVICEL®, filter paper and steam exploded wood chips from poplar), at either pH 5.5 (20 mM sodium acetate buffer), 6.5 (20 mM Bis-Tris buffer) or 8.0 (20 mM Tris buffer) in reaction mixtures containing 1.0 mM MgCl2.

[6] = Chitin solubilization by CBP21: soluble oxidized products (MALDI-TOF MS, UHPLC); format: biochemical; conditions: 2.0 mg/mL beta-chitin, 1.0 mM ascorbic acid, 20 mM Tris pH 8.0, 37° C.
Procedure: Two microliter of a 9 mg/mL mixture of 2,5-dihydroxybenzoic acid (DHB) in 30% acetonitrile was applied to a MTP 384 target plate ground steel TF (Bruker Daltonics). One microliter sample was then mixed into the DHB droplet and dried under a stream of air. The samples were analyzed with an Ultraflex MALDI-TOF/TOF instrument (Bruker Daltonics GmbH, Bremen, Germany) with a Nitrogen 337 nm laser beam. The instrument was operated in positive acquisition mode and controlled by the FlexControl 3.3 software package. All spectra were obtained using the reflectron mode with an acceleration voltage of 25 kV, a reflector voltage of 26, and pulsed ion extraction of 40 ns in the positive ion mode. The acquisition range used was from m/z 0 to 7000. […] Post-source decay (PSD) spectra using the Bruker Daltonics LIFT system were recorded at 8 kV precursor ion acceleration voltage and fragment acceleration (LIFT voltage 19 kV). […]
UHPLC was run on an Agilent 1290 Infinity UHPLC system equipped with diode array detector, set up with a Waters Acquity UPLC BEH amide column (2.1×150 mm with a 2.1×30 mm pre column both having a column material particle size of 1.7 μm) using 5 μL sample injections. […] Eluted oligosaccharides were monitored by recording absorption at 205 nm. Chromatograms were recorded, integrated and analysed using the ChemStation rev. […]

[7] = 0.1 mg/mL beta-chitin, 0.5 μM ChiC, 1.0 mM ascorbic acid, pH 8.0
Procedure: CBP21-like and GH61 proteins contain two highly conserved histidines (H28 and H114 in CBP21), one of which is the N-terminal histidine of the secreted mature protein.
Isocratic HPLC was run on a Dionex Ultimate 3000 HPLC system set up with a 4.6×250 mm Amide-80 column (Tosoh Bioscience, Montgomeryville, Pa., USA) with an Amide-80 guard column. The mobile phase consisted of 70% acetonitrile: 30% MilliQ H2O and the flow rate was 0.7 ml/min. Eluted oligosaccharides were monitored by recording absorption at 190 nm. Chromatograms were recorded, integrated and analysed using the Chromeleon 6.8 chromatography software (Dionex). […] A standard solution containing 0.10 mM (GlcNAc)2 was analyzed at regular intervals during the sample series, and the resulting average values (displaying standard deviations of less than 3%) were used for calibration.
For the sake of experimental simplicity and throughput, the degradation of chitin in reactions with ChiC and CBP21 was quantitatively assessed by measuring concentration of the dominant product, (GlcNAc)2, only.
The reaction was incubated at 37° C. and sampled at regular time intervals. Chitin degradation was measured by determining the concentration of (GlcNAc)2 by HPLC.

Molecule: [Cu+2] [Cu^2+]
- reactivation of EDTA treated enzyme [1]: reactivated the enzyme
- reactivation of EDTA treated enzyme ([1]; listed as copper): able to reactivate CelS2
- effect on CBM33 action at higher metal concentration ([1]; concentrations in the 1 mM range, not shown): inhibits CBM33 action

B1: Cel7A: family GH7 cellulase from Hypocrea jecorina purified from CELLUCLAST (protein, UniProt P62694 18-513, looked up)
Exoglucanase 1: QSACTLQSETHPPLTWQKCSSGGTCTQQTGSVVIDANWRWTHATNSSTNCYDGNTWSSTLCPDNETCAKNCCLDGAAYASTYGVTTSGNSLSIGFVTQSAQKNVGARLYLMASDTTYQEFTLLGNEFSFDVDVSQLPCGLNGALYFVSMDADGGVSKYPTNTAGAKYGTGYCDSQCPRDLKFINGQANVEGWEPSSNNANTGIGGHGSCCSEMDIWEANSISEALTPHPCTTVGQEICEGDGCGGTYSDNRYGGTCDPDGCDWNPYRLGNTSFYGPGSSFTLDTTKKLTVVTQFETSGAINRYYVQNGVTFQQPNAELGSYSGNELNDDYCTAEEAEFGGSSFSDKGGLTQFKKATSGGMVLVMSLWDDYYANMLWLDSTYPTNETSSTPGAVRGSCSTSSGVPAQVESQSPNAKVTFSNIKFGPIGSTGNPSGGNPPGGNRGTTTTRRPATTTGSSPGPTQSHYGQCGGIGYSGPTVCASGTTCQVLNPYYSQCL
- cellulase activity at pH 8.0 [2]: close to inactive

B2: E7: single domain CBM33 from Thermobifida fusca (SEQ ID NO: 6) (protein, listed as Thermobifida fusca)
chain: MHRYSRTGKHRWTVRALAVLFTALLGLTQWTAPASAHGSVINPATRNYGCWLRWGHDHLNPNMQYEDPMCWQAWQDNPNAMWNWNGLYRDWVGGNHRAALPDGQLCSGGLTEGGRYRSMDAVGPWKTTDVNNTFTIHLYDQASHGADYFLVYVTKQGFDPTTQPLTWDSLELVHQTGSYPPAQNIQFTVHAPNRSGRHVVFTIWKASHMDQTYYLCSDVNFV
- effect on CELLUCLAST activity ([3]; 1 μM E7, 0.08 μl/ml CC, 2 mg/ml filter paper, pH 5.5): acts in synergy with CELLUCLAST™; also recorded: prolongs cellulase activity over time
- Glc or Glc2 released without cellulases ([3]; E7 in absence of cellulases): did not yield detectable amounts of Glc or Glc2
- release of soluble native/oxidized cellooligosaccharides from AVICEL [4]: soluble oligomeric products were observed
- increase of glucose yield versus CELLUCLAST only ([5]; no external electron donor, 24 hours): ~3.0 fold
- increase of glucose yield versus CELLUCLAST only ([5]; no external electron donor, 120 hours): ~3.5 fold
- increase of glucose yield versus CELLUCLAST only ([5]; with external electron donor (1 mM reduced glutathione), 24 hours): 3.5 fold
- increase of glucose yield versus CELLUCLAST only ([5]; with external electron donor (1 mM reduced glutathione), 120 hours): ~4.5 fold

B3: CBP21^H114A: H114A mutant variant of CBP21 (protein, UniProt P9WEM3 28-197, looked up, variant H114A)
AA10 family lytic …: HGYVESPASRAYQCKLQLNTQCGSVQYEPQSVEGLKGFPQAGPADGHIASADKSTFFELDQQTPTRWNKLNLKTGPNSFTWKLTARASTTSWRYFITKPNWDASQPLTRASFDLTPFCQFNDGGAIPAAQVTHQCNIPADRSGSHVILAVWDIADTANAFYQAIDVNLSK
- production of soluble oxidized oligosaccharides from beta-chitin [6]: did not lead to production of soluble oxidized oligosaccharides
- potentiating effect on chitinase (ChiC) efficiency [7]: unable to boost chitinase activity

B4: CBM33 domain: recombinantly produced N-terminal CBM33 domain of CelS2 (SEQ ID NO: 22) (protein)
chain: HGVAMMPGSRTYLCQLDAKTGTGALDPTNPACQAALDQSGATALYNWFAVLDSNAGGRGAGYVPDGTLCSAGDRSPYDFSAYNAARSDWPRTHLTSGATIPVEYSNWAAHPGDFRVYLTKPGWSPTSELGWDDLELIQTVTNPPQQGSPGTDGGHYYWDLALPSGRSGDALIFMQWVRSDSQENFFSCSDVVFDGG
modifications: Streptomyces coelicolor
- release of soluble native/oxidized cellooligosaccharides from AVICEL [4]: shows activity on AVICEL® without its CBM2, although lower than the activity of the whole protein

Source: patent US10889844B2, “Methods of degrading or hydrolyzing a polysaccharide” (Novozymes A/S, priority 2010, dated 2021)
